By EC50 is commonly meant the concentration that produces a half-maximal response.

The target in the assay is ACE2-Fc fusion protein (extracellular domain of human ACE2 and the Fc region of human IgG1) (human) (UniProt Q9BYF1). Nature of the assay: ELISA. On the technique in general: ELISA stands for enzyme-linked immunosorbent assay.
Substance “recombinant S1-subunit or RBD of SARS-CoV-2 variant B.1.1.7 (domain or fragment)” displayed an EC50 of 0.8 nM.

With “recombinant S1-subunit or RBD of SARS-CoV-2 variant B.1.351 (domain or fragment)”, the EC50 was 6.9 nM. Substance “recombinant S1-subunit or RBD of SARS-CoV-2 variant B.1.617.1 (domain or fragment)” displayed a half-maximal effective concentration (EC50) of 51.3 nM. Regarding “recombinant S1-subunit or RBD of SARS-CoV-2 variant P.1 (domain or fragment)”, the EC50 turned out to be 14.9 nM. “recombinant S1-subunit or RBD of SARS-CoV-2-D614G (domain or fragment)” yielded an EC50 of 2.6 nM.

The values above are taken from PMC8385704.
